Laboratory results as given in the supplement of paper PMC9732359.
± gives the uncertainty stated by the source.

Experiment: protein stability index of a GFP-peptide fusion (yeast GPS) (PSI 1-4); higher = more stable; sorted into four equal gates, so the index is relative within each strain
Outline: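 Each library plasmid carries Cherry plus GFP with a tiled 17-residue yeast protein peptide fused downstream, and the pooled library was carried in yeast. Mid-log cultures in leucine-free medium were sorted into four equal gates by GFP/Cherry ratio. Reads from Illumina sequencing of PCR-amplified plasmids from each gate were assigned to strains by barcodes. Per peptide, the protein stability index was computed as the summed products of gate read frequency and gate number.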

| Sequence | protein stability index (doa10∆) | protein stability index (pdr5∆) | protein stability index (san1∆) | protein stability index (ubr1∆) |
| --- | --- | --- | --- | --- |
| KEFDETIFNLPKNKLVP [FAS1] | 3.5 ± 0.17 | 3.39 ± 0.18 | 3.59 ± 0.085 | 3.07 ± 0.2 |
| HINSILLARVIQMNNSL [SNF11] | 2.22 ± 0.13 | 1.94 ± 0.11 | 1.96 ± 0.12 | 1.7 ± 0.092 |
| SAGFETDLRLSTNGLGM [SNU114] | 3.43 ± 0.1 | 3.46 ± 0.12 | 2.98 ± 0.22 | 3.13 ± 0.22 |
| ILCIFEGEKCHPQDFGN [SEC65] | 2.13 ± 0.059 | 2.39 ± 0.066 | 2.14 ± 0.087 | 2.44 ± 0.053 |
| IIQLILWSIHPSRQFDH [SRB8] | 1.57 ± 0.047 | 1.47 ± 0.049 | 1.59 ± 0.087 | 1.54 ± 0.05 |
| ADKKDDSESNSEPIDLI [ITC1] | 3.05 ± 0.079 | 3.32 ± 0.087 | 3.02 ± 0.12 | 3.35 ± 0.081 |
| RDDEPKLYQTEPSGIYS [PRE6] | 3.14 ± 0.058 | 3.07 ± 0.082 | 3.09 ± 0.051 | 3.18 ± 0.046 |
| LHKLELKAKNQEEEGEL [DSN1] | 3.14 ± 0.17 | 3.29 ± 0.17 | 3.37 ± 0.14 | 3.25 ± 0.1 |
| PKVTPQMMQQAQQKLKQ [SRP54] | 1.42 ± 0.25 | 1.18 ± 0.18 |  | 1.48 ± 0.24 |
| KLSSAENANADLENKFN [YIL149C/MLP2] | 3.06 ± 0.063 | 3.31 ± 0.073 | 3.07 ± 0.062 | 3.1 ± 0.042 |
| LDKDRKALIQRKGGKLE [RPL26A] | 2.48 ± 0.18 | 3.5 ± 0.21 | 3.12 ± 0.09 | 2.97 ± 0.14 |
| SYKMNSSAADITMESVH [PRP8] | 3.32 ± 0.11 | 3.19 ± 0.08 | 3.21 ± 0.095 | 3.17 ± 0.067 |
| NPSVKQGEVGAVFIVPK [SWP82] | 3.23 ± 0.26 | 3.23 ± 0.15 | 3.28 ± 0.12 |  |
| KDQRATTPYMTKYERAR [RPO26] | 2.56 ± 0.057 | 3.01 ± 0.051 | 2.44 ± 0.11 | 3.04 ± 0.048 |
| NEKLECISLGSTKLSRP [ITC1] | 2.25 ± 0.064 | 2.64 ± 0.052 | 2.44 ± 0.047 | 2.47 ± 0.057 |
| VHPFHVLRINKMLSCAG [RPL10] | 1.11 ± 0.086 | 1.21 ± 0.075 | 1.21 ± 0.092 | 1.05 ± 0.06 |
| EIMEERNVEQKLNELDE [NNF1] | 3.11 ± 0.08 | 2.94 ± 0.077 | 3.13 ± 0.052 | 3.27 ± 0.045 |
| SGNNYNDINISSIENNI [MED2] | 3.01 ± 0.039 | 3.02 ± 0.036 | 2.89 ± 0.032 | 3.151 ± 0.031 |
| VAATITSSQKEPFFLVT [SRB8] | 1.8 ± 0.071 | 2.17 ± 0.086 | 2.12 ± 0.083 | 2.21 ± 0.075 |
| ASVYPEYALPKTYNKLH [RPS26A] | 2.92 ± 0.076 | 2.51 ± 0.053 | 2.79 ± 0.059 | 2.71 ± 0.031 |
| QGVTCLHLAVGKKWFEV [NAS6] | 2.76 ± 0.23 |  |  | 3.14 ± 0.14 |
| LDTQLNDLRVSLNEKNA [SMC1] | 3.03 ± 0.11 | 3.13 ± 0.082 | 3.41 ± 0.064 | 3.14 ± 0.09 |
| KLPKVYKRSIVRNYKPL [SWI1] | 2.8 ± 0.086 | 2.99 ± 0.089 | 2.89 ± 0.074 | 2.96 ± 0.12 |
| ELLEHIETIGHLITKEE [RPN5] | 2.91 ± 0.076 | 3.03 ± 0.11 | 3.08 ± 0.068 | 3.12 ± 0.076 |
| IIDEIKCIPKKGTVFQF [POP4] | 1.6 ± 0.13 | 1.56 ± 0.074 | 1.86 ± 0.28 | 1.3 ± 0.048 |
| NTKEEFAAAPNDTSSGT [SNF5] | 2.97 ± 0.067 | 3.06 ± 0.062 | 2.96 ± 0.055 | 2.9 ± 0.062 |

| Sequence | protein stability index (doa10∆) | protein stability index (pdr5∆) | protein stability index (san1∆) | protein stability index (ubr1∆) |
| --- | --- | --- | --- | --- |
| GTSTTHGSISPQEESVS [SIR3] | 2.14 ± 0.043 | 2.56 ± 0.045 | 2.43 ± 0.053 | 2.48 ± 0.033 |
| DQDKVNFASGDNNTASN [RPB3] | 2.85 ± 0.16 | 2.36 ± 0.14 |  | 2.5 ± 0.18 |
| LRADKLYEKLKQEIMMS [ISW2] | 1.63 ± 0.14 | 1.38 ± 0.18 | 1.78 ± 0.25 | 1.41 ± 0.15 |
| FQLVNDVMDELITSSAR [SIR3] | 3.36 ± 0.14 | 2.9 ± 0.087 | 3.42 ± 0.068 | 3.23 ± 0.071 |
| EIGLLPEDALVNDFSDI [SMC3] | 3.44 ± 0.089 | 2.91 ± 0.12 | 3.19 ± 0.088 | 3.3 ± 0.11 |
| TKPGVYYVPYSKLMPVL [RPC82] | 1.54 ± 0.059 | 1.59 ± 0.049 | 1.91 ± 0.067 | 1.96 ± 0.09 |
| VNRLLSVIPLKGRYAPE [RRP4] | 1.85 ± 0.17 | 1.68 ± 0.087 | 2.33 ± 0.15 | 1.86 ± 0.055 |
| GKLVVSQEMVPRYFSEA [SIR3] | 3.31 ± 0.086 | 3.43 ± 0.17 | 3.38 ± 0.079 | 3.21 ± 0.12 |
| ESKSLLNLFSNVLKAPF [SIR4] | 2.39 ± 0.086 | 2.16 ± 0.13 | 1.56 ± 0.21 | 2.48 ± 0.077 |
| LMVFNDDTKNQDSMSKG [YGR119C/NUP57] | 3.04 ± 0.08 | 3.46 ± 0.16 | 2.94 ± 0.18 | 3.05 ± 0.071 |
| EQKITEIEDGQDGGVTP [RPO21] | 3.36 ± 0.081 | 3.38 ± 0.067 | 3.37 ± 0.048 | 3.31 ± 0.067 |
| TTALLKDEEIEKLLQQD [MED8] | 3.29 ± 0.13 | 3.13 ± 0.13 | 3.05 ± 0.23 | 3.59 ± 0.14 |
| KSRMINFLDAPGHVNFM [SNU114] |  | 2.65 ± 0.17 | 3.06 ± 0.12 | 3.57 ± 0.28 |
| IGKMYDEYLGSHTDQPA [NNF1] | 3.37 ± 0.16 | 2.9 ± 0.17 |  | 3.28 ± 0.086 |
| ASFYSVNTEKKTIEVTA [RPN3] |  | 1.29 ± 0.11 |  | 1.65 ± 0.28 |
| SPYGNLQNDLIHKIQND [RPN5] | 2.02 ± 0.083 | 2.67 ± 0.053 | 2.82 ± 0.07 | 2.56 ± 0.058 |
| KTPVFTTGGDYILSLVS [YMR129W/POM152] | 2.06 ± 0.056 | 2.13 ± 0.058 | 1.74 ± 0.064 | 1.87 ± 0.044 |
| FTPEEEAAIRRENEWAE [SKP1] | 3.01 ± 0.11 | 3.25 ± 0.096 | 3.34 ± 0.063 | 3.3 ± 0.11 |
| LQLSKTPLSIKIMVAEW [SRB8] | 2.31 ± 0.17 | 2.84 ± 0.072 | 2.69 ± 0.13 | 3 ± 0.12 |
| KLEKLRNEKRMFLEFQS [SMC2] | 2.88 ± 0.13 | 3.3 ± 0.08 | 3.15 ± 0.12 | 3.49 ± 0.092 |
| GSGAANENPYNNGVSNL [COR1] | 3.02 ± 0.17 | 2.94 ± 0.14 | 3.15 ± 0.11 | 2.79 ± 0.17 |
| PHNSKSLGFLQQSNKLH [RPN3] | 3.11 ± 0.059 | 3.07 ± 0.072 | 3.1 ± 0.053 | 3.26 ± 0.055 |
| YTRYLDRIYMLFHFEED [PRP8] | 1.68 ± 0.059 | 1.4 ± 0.051 | 1.5 ± 0.12 | 1.61 ± 0.043 |
| KRGVKGVEYRLRLRISR [RPL31A] | 1.64 ± 0.12 | 1.36 ± 0.12 |  | 1.78 ± 0.19 |
| AYELRTKSKEQLASQLV [RPL35A] | 3.02 ± 0.11 | 3.29 ± 0.091 | 2.93 ± 0.067 | 3.15 ± 0.13 |
